Legend:
[1] = target: nucleosome: histone octamer with Alexa Fluor 488 on histone H4 E63C assembled onto a 165 bp DNA (human) (UniProt P04908)
[2] = target: (H3-H4)2 tetramer (fluorescently labeled with Alexa Fluor 488 on H4 at E63C) (human) (UniProt P68431); assay: fluorescence polarisation; 5 nM Alexa Fluor 488-labeled H2A-H2B dimer or (H3-H4)2 tetramer, SMARCAD1 titrated 0-2500 nM; 2 mM DTT, 10% glycerol, 50 mM HEPES pH 7.5, 0.01% CHAPS, 0.01% NP-40, 300 mM KCl; room temperature, 30 min; hyperbolic fit
[3] = target: nucleosome: histone octamer with Alexa Fluor 488 on histone H4 E63C assembled onto a 165 bp DNA (human) (UniProt P04908); assay: fluorescence polarisation; 10 nM Alexa Fluor 488-labeled nucleosome (165 bp DNA), SMARCAD1 titrated 0-5 μM; 2 mM DTT, 10% glycerol, 50 mM HEPES pH 7.5, 0.01% CHAPS, 0.01% NP-40; room temperature, 30 min; hyperbolic fit
[4] = target: T1, 23A SMARCAD1, dephosphorylated (human) (UniProt Q9H4L7); assay: fluorescence polarization; conditions: FP: 50 mM HEPES pH 7.5, 2 mM DTT, 10% glycerol, 0.01% CHAPS, 0.01% NP-40, no added salt stated, room temperature 30 min, 10 nM nucleosome or DNA, 0-5 uM …
T1 sequence: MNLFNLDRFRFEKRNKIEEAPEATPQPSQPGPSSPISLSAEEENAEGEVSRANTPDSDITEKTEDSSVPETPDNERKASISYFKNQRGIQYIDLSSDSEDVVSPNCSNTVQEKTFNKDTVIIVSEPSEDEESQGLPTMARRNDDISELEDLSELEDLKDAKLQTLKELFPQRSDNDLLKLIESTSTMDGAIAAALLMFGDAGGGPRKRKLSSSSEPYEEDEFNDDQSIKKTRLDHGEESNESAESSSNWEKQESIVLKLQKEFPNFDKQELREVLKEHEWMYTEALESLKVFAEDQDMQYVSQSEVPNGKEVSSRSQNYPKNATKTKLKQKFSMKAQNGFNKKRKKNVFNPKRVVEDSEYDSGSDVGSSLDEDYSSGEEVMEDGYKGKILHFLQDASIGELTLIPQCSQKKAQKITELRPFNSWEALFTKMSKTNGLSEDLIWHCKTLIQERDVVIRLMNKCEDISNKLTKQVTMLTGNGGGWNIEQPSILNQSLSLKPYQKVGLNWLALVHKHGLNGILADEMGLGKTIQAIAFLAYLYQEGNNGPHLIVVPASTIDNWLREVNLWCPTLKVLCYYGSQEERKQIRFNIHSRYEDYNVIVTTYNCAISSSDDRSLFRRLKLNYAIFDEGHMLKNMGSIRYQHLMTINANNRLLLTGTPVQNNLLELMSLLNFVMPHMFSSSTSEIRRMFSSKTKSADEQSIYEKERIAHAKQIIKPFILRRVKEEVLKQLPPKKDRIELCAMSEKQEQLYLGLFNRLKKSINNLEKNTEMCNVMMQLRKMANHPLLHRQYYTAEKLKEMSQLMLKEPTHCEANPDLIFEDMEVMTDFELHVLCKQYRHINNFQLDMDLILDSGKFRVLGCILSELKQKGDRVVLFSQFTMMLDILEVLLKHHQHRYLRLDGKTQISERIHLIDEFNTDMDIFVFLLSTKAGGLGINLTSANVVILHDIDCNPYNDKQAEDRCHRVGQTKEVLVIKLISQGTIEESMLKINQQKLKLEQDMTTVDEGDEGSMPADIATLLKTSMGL

[5] = target: T2, 23A SMARCAD1, phosphorylated (human) (UniProt Q9H4L7); assay: fluorescence polarization; conditions: FP: 50 mM HEPES pH 7.5, 2 mM DTT, 10% glycerol, 0.01% CHAPS, 0.01% NP-40, no added salt stated, room temperature 30 min, 10 nM nucleosome or DNA, 0-5 uM …
T2 sequence: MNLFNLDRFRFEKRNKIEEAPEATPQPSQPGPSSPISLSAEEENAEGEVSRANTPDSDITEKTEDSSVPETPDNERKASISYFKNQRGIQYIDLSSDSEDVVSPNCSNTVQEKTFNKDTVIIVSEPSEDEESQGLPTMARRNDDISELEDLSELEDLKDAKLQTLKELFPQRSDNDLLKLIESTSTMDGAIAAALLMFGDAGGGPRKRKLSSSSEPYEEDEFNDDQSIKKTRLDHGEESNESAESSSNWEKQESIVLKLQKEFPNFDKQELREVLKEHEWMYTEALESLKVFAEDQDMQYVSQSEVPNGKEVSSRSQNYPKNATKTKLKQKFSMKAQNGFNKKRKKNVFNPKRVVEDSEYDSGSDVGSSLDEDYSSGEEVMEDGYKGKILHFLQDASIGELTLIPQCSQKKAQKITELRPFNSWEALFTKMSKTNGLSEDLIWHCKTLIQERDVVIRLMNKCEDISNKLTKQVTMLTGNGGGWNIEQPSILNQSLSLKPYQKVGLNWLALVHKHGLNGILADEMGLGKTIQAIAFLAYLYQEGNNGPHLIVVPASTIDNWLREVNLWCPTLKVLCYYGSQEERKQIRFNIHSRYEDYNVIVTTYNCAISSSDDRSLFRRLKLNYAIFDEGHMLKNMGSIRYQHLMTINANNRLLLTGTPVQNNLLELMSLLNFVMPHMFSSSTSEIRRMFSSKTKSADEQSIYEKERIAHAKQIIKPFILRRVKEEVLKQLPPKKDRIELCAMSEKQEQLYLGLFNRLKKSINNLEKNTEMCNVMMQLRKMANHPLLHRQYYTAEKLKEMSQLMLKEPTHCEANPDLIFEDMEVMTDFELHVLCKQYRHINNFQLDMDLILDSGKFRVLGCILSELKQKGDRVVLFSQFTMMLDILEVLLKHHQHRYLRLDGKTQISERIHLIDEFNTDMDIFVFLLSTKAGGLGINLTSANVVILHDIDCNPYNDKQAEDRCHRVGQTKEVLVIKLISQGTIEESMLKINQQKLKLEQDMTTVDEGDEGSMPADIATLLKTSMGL

[6] = target: T3, Δ350 SMARCAD1, dephosphorylated V974A;del1-350 (human) (UniProt Q9H4L7); assay: fluorescence polarization; conditions: FP: 50 mM HEPES pH 7.5, 2 mM DTT, 10% glycerol, 0.01% CHAPS, 0.01% NP-40, no added salt stated, room temperature 30 min; 10 nM nucleosome or DNA, 0-5 uM …
T3 sequence: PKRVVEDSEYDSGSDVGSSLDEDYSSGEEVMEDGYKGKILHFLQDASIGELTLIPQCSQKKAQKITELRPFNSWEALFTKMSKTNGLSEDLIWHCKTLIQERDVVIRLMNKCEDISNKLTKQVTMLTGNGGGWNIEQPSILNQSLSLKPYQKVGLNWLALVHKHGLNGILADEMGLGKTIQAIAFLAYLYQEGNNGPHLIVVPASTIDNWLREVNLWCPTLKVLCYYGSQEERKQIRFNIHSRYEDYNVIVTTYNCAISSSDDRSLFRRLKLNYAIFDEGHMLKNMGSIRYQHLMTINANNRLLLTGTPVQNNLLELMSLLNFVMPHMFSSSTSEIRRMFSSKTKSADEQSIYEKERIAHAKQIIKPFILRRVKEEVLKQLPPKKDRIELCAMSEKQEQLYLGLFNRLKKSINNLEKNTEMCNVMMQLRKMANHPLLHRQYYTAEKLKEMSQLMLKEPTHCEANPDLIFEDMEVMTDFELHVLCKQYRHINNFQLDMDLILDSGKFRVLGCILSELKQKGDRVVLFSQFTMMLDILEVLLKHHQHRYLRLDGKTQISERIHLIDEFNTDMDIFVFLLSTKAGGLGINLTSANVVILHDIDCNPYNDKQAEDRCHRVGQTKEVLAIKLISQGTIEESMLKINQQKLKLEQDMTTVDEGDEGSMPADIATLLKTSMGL

[7] = target: T4, Δ350 SMARCAD1, dephosphorylated (human, UniProt Q9H4L7 351-1026, V974A;del1-350); assay: fluorescence polarization; dephosphorylated (CIP); FP: 50 mM HEPES pH 7.5, 2 mM DTT, 10% glycerol, 0.01% CHAPS, 0.01% NP-40, no added salt stated, room temperature 30 min; 10 nM nucleosome or DNA, 0-5 uM SMARCAD1; conditions: protein: recombinant; tags: 6xHis; label: Alexa Fluor 488 and Alexa Fluor 647 (labeled PCR primers); blunt
T4 sequence: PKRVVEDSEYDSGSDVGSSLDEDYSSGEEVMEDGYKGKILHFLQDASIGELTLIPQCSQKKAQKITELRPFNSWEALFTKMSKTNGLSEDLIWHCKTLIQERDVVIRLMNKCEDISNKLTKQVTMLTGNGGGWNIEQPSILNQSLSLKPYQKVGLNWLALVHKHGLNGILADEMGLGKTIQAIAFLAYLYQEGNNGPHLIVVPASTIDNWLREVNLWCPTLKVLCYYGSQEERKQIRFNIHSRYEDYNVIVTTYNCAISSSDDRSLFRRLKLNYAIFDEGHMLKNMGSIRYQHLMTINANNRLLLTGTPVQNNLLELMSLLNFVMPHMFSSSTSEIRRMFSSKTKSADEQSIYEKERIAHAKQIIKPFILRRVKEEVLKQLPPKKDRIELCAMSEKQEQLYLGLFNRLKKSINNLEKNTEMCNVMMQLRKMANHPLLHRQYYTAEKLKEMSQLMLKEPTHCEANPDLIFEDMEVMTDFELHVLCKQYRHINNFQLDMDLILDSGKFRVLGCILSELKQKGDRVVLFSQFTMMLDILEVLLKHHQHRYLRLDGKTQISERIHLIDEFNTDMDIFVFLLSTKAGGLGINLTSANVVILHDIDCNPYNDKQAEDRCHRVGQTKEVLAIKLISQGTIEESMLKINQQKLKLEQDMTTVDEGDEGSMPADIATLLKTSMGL

[8] = target: T5, WT SMARCAD1, dephosphorylated (human, UniProt Q9H4L7 1-1026, V974A); assay: as above; conditions: protein: recombinant; tags: 6xHis (C- or N-terminal); label: Alexa Fluor 488 and Alexa Fluor 647 (labeled PCR primers); blunt
T5 sequence: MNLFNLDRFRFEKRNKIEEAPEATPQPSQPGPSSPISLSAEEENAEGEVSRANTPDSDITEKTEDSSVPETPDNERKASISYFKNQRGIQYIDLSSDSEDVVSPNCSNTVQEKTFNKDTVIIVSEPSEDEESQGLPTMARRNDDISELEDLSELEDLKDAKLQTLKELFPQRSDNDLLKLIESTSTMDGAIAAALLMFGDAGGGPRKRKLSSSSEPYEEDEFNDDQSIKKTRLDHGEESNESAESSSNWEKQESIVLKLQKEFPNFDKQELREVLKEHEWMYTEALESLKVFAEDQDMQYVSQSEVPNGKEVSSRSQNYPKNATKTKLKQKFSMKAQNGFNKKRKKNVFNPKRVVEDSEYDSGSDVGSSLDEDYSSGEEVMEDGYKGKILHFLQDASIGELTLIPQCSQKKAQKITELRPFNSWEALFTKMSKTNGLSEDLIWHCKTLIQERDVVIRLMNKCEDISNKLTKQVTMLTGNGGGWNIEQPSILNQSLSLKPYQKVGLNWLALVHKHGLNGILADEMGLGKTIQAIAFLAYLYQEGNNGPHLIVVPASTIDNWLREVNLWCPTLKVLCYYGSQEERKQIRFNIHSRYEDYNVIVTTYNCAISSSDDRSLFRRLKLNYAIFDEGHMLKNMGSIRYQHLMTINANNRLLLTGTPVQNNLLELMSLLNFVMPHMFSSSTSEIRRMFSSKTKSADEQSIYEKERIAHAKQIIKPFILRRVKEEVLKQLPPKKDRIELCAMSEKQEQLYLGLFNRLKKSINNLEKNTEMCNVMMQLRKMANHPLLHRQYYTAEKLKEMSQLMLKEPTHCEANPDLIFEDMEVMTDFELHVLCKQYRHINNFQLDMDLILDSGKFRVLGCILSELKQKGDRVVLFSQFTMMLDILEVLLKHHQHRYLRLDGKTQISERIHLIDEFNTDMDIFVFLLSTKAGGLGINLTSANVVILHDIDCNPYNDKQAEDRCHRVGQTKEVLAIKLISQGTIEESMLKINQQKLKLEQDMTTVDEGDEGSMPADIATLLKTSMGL

Molecule: phosphorylated Δ350 SMARCAD1 (from UniProt Q9H4L7 351-1026) (domain or fragment)
- ATP hydrolysis rate with nucleosome as activator (1 μM SMARCAD1, 1 μM nucleosome; NADH-coupled assay) [1]: 118 nM/s
- Kd [2]: 495 nM

Molecule: dephosphorylated Δ350 SMARCAD1 (from UniProt Q9H4L7 351-1026) (domain or fragment)
- Kd [3]: 114 nM

Molecule: phosphorylated wild type SMARCAD1 (from UniProt Q9H4L7 1-1026) (enzyme)
- ATP hydrolysis rate with nucleosome as activator (1 μM SMARCAD1, 1 μM nucleosome; NADH-coupled assay) [1]: 30 nM/s
- Kd [2]: 151 nM

Molecule: CGAGCCAGGCCTGAGAATCCGGTGCCGAGGCCGCTCAATTGGTCGTAGACAGCTCTAGCACCGCTTAAACGCACGTACGCGCTGTCCCCCGCGTTTTAACCGCCAAGGGGATTACTCCCTAGTCTCCAGGCACGTGTCAGATATATACATCCAGGCCTTGTGTCG (double strand) [165 bp 601 nucleosome (7N11)]
- Kd ([4]; dephosphorylated (CIP)): 71 nM
- Kd ([5]; phosphorylated): 213 nM
- Kd [6]: 114 nM

Molecule: CGAGCCAGGCCTGAGAATCCGGTGCCGAGGCCGCTCAATTGGTCGTAGACAGCTCTAGCACCGCTTAAACGCACGTACGCGCTGTCCCCCGCGTTTTAACCGCCAAGGGGATTACTCCCTAGTCTCCAGGCACGTGTCAGATATATACATCCAGGCCTTGTGTCG (double strand) [165 bp 601 DNA]
- Kd [4]: 28 nM
- Kd [5]: 49 nM

B1: 165 bp 601 DNA (dsDNA)
DNA 1: CGAGCCAGGCCTGAGAATCCGGTGCCGAGGCCGCTCAATTGGTCGTAGACAGCTCTAGCACCGCTTAAACGCACGTACGCGCTGTCCCCCGCGTTTTAACCGCCAAGGGGATTACTCCCTAGTCTCCAGGCACGTGTCAGATATATACATCCAGGCCTTGTGTCG
DNA 2: CGACACAAGGCCTGGATGTATATATCTGACACGTGCCTGGAGACTAGGGAGTAATCCCCTTGGCGGTTAAAACGCGGGGGACAGCGCGTACGTGCGTTTAAGCGGTGCTAGAGCTGTCTACGACCAATTGAGCGGCCTCGGCACCGGATTCTCAGGCCTGGCTCG
- Kd [7]: 60 ± 18 nM
- Kd [8]: 26 ± 9 nM

From PMC11742319, “Phosphorylation regulates the chromatin remodeler SMARCAD1 in nucleosome binding, ATP hydrolysis, and histone exchange”
